Consider one molecule from PMC5856381 (2018).

Assay [1] addresses T1, hemoglobin (Hb), human, cell-free (human, UniProt P69905 1-142; P68871 1-147). Briefly: SPR.
Assay [2] deals with T1, hemoglobin (Hb), human, cell-free. The assay is described as follows: SPR. The source holds these as a separate data set.

T1 sequence (P69905 whole entry, chain 1 of 2): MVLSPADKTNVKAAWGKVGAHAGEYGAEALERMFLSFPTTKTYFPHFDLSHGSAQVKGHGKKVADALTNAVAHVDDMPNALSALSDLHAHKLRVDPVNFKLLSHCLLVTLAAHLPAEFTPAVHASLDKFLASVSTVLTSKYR
T1 sequence (P68871 whole entry, chain 2 of 2): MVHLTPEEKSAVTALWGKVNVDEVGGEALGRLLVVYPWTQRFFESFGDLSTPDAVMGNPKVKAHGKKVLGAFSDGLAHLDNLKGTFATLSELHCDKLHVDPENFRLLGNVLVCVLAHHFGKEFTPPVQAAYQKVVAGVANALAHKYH

B1: recombinant haptoglobin Hp1F, C1r-LP processed (natural protein)
chain 1: VDSGNDVTDIADDGCPKPPEIAHGYVEHSVRYQCKNYYKLRTEGDGVYTLNDKKQWINKAVGDKLPECEAVCGKPKNPANPVQ
chain 2: ILGGHLDAKGSFPWQAKMVSHHNLTTGATLINEQWLLTTAKNLFLNHSENATAKDIAPTLTLYVGKKQLVEIEKVVLHPNYSQVDIGLIKLKQKVSVNERVMPICLPSKDYAEVGRVGYVSGWGRNANFKFTDHLKYVMLPVADQDQCIRHYEGSTVPEKKTPKSPVGVQPILNEHTFCAGMSKYQEDTCYGDAGSAFAVHDLEEDTWYATGILSFDKSCAVAEYGVYVKVTSIQDWVQKTIAEN
modifications: Hp1F built from the first (F) repeat of Hp2FS (mature Asp52/Lys53 = precursor D70/K71); C1r-LP cleaves after R161 (Arg omitted from alpha chain per UniProt convention); alpha-beta and inter-alpha disulfides; N-glycosylated; C-terminal 8xHis tag omitted
B1: the koff in assay [1] was less than 5e-05 s⁻¹. In assay [2], the Kd is less than 0.042 nM.
